B1: mouse PRMT2 (untagged; endogenous in NIH3T3 cells, MEFs, GT1-7 cells and VSMC, or expressed from mouse PRMT2 cDNA in HEK293 cells) (protein)
chain: MEAPGEGPCSESQVIPVLEEDPVDYGCEMQLLQDGAQLQLQLQPEEFVAIADYTATDETQLSFLRGEKILILRQTTADWWWGERAGCCGYIPANHLGKQLEEYDPEDTWQDEEYFDSYGTLKLHLEMLADQPRTTKYHSVILQNKESLKDKVILDVGCGTGIISLFCAHHARPKAVYAVEASDMAQHTSQLVLQNGFADTITVFQQKVEDVVLPEKVDVLVSEWMGTCLLFEFMIESILYARDTWLKGDGIIWPTTAALHLVPCSAEKDYHSKVLFWDNAYEFNLSALKSLAIKEFFSRPKSNHILKPEDCLSEPCTILQLDMRTVQVPDLETMRGELRFDIQKAGTLHGFTAWFSVYFQSLEEGQPQQVVSTGPLHPTTHWKQTLFMMDDPVPVHTGDVVHGFCCVTKKSGMEKAHVCLSELGCHVRTRSHVSTELETGSFRSGGDS
B2: mouse PRMT2-Flag (FLAG-tagged full-length PRMT-2) (protein)
chain: MEAPGEGPCSESQVIPVLEEDPVDYGCEMQLLQDGAQLQLQLQPEEFVAIADYTATDETQLSFLRGEKILILRQTTADWWWGERAGCCGYIPANHLGKQLEEYDPEDTWQDEEYFDSYGTLKLHLEMLADQPRTTKYHSVILQNKESLKDKVILDVGCGTGIISLFCAHHARPKAVYAVEASDMAQHTSQLVLQNGFADTITVFQQKVEDVVLPEKVDVLVSEWMGTCLLFEFMIESILYARDTWLKGDGIIWPTTAALHLVPCSAEKDYHSKVLFWDNAYEFNLSALKSLAIKEFFSRPKSNHILKPEDCLSEPCTILQLDMRTVQVPDLETMRGELRFDIQKAGTLHGFTAWFSVYFQSLEEGQPQQVVSTGPLHPTTHWKQTLFMMDDPVPVHTGDVVHGFCCVTKKSGMEKAHVCLSELGCHVRTRSHVSTELETGSFRSGGDS

Key:
[1] = molecular target: GST-Stat3 fusion protein, P42227
GST-Stat3 fusion protein, P42227, sequence (P42227 whole entry, the tested form may be a part): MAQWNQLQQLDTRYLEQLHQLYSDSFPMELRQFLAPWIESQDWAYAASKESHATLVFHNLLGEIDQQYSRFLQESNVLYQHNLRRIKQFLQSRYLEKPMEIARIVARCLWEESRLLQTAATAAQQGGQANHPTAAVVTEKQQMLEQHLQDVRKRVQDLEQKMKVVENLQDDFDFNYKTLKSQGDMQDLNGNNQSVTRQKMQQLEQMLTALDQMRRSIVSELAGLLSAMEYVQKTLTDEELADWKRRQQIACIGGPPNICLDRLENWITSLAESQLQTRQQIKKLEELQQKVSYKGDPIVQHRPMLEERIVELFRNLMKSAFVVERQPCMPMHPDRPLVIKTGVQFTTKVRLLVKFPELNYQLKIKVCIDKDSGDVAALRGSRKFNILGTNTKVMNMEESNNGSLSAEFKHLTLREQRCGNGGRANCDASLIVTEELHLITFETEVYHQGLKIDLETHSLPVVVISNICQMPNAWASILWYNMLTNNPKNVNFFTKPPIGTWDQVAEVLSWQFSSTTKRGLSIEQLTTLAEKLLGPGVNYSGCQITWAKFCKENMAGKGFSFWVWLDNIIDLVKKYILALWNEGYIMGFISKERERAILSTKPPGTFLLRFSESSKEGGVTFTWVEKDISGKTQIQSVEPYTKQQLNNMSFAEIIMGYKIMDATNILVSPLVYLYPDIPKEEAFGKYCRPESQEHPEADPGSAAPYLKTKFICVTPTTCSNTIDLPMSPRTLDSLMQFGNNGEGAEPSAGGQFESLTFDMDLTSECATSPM

[2] = molecular target: GST-Stat3 Arg31→Ala31 [GST: P08515]
GST-Stat3 Arg31→Ala31 [GST: P08515], sequence (P08515 whole entry, looked up): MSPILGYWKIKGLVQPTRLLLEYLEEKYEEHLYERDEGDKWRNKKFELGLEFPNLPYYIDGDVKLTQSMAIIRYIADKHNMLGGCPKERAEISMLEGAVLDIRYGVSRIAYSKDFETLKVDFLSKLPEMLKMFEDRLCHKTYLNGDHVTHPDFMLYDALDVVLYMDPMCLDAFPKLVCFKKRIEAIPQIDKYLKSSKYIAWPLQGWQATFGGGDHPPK

[3] = molecular target: mouse STAT3 (endogenous in GT1-7 cells and VSMC, or expressed from mouse STAT3 pcDNA3 in HEK293 cells), P42227
mouse STAT3 (endogenous in GT1-7 cells and VSMC, or expressed from mouse STAT3 pcDNA3 in HEK293 cells), P42227, sequence (P42227 2-770): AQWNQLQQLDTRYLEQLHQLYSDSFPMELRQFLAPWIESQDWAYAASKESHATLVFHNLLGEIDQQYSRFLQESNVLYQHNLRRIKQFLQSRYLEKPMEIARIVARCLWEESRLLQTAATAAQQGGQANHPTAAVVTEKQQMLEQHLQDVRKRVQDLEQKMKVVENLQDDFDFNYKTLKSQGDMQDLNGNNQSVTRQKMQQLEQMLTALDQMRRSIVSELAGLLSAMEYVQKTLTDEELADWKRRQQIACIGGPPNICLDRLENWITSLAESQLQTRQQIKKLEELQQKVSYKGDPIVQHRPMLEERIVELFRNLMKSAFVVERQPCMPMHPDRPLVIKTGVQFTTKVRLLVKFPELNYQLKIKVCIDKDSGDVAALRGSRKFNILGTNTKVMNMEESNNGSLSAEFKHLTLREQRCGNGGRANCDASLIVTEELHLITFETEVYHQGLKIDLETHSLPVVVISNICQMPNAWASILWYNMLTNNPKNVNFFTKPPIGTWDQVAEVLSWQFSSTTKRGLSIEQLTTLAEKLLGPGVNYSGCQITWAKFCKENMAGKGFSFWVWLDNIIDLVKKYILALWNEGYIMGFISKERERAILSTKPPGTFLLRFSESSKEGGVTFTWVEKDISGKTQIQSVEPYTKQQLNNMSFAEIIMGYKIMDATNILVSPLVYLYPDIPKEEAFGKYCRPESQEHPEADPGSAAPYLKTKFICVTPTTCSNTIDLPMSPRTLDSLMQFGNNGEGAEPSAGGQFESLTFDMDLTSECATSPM

Protein	in vitro methylation with [3H]-AdoMet, MEF extracts as the enzyme source [1]	in vitro methylation with [3H]-AdoMet, MEF extracts as the enzyme source [2]	leptin-induced Stat3 methylation in VSMC (anti-Stat3 immunoprecipitation, immunoblot with α-metR antibody) [3]	in vitro methylation with [3H]-AdoMet [1]
B1	Cell extracts from wild-type MEFs were also capable of methylating GST-Stat3, whereas cell extracts from PRMT2^-/- cells abolished Stat3 methylation (FIG. 20B, lanes 2 and 4)	This mutation resulted in substantially no methylation of Stat3 (FIG. 20B, lane 3)	leptin (100 nM) evoked a transient methylation of Stat3 at 10 min in wild-type VSMC (FIG. 22D, lane 2-5), whereas increased Stat3 methylation was not observed in PRMT2^-/- cells (FIG. 22D, lane 6-9)	
B2				Flag fusion protein from the cells transfected wild-type PRMT2-Flag cDNA could methylate GST-Stat3

From US20060239990
